Laboratory results reported in US5679770A, “Polypeptide, DNA fragment encoding the same, drug composition containing the same and process for producing the same” (Mochida Pharmaceutical Co., Ltd., priority 1991, dated 1997).
Positions count from the first letter of the chain named. Names may count otherwise. Blank lines part the entries; values can stand above or below the molecule they belong to.

Columns and labels:
[1] = molecular target: T1, human FXa (Homo sapiens, UniProt P00742); assay: FXa-inhibiting activity (synthetic substrate S-2222); format: biochemical; details: concentration expressed as bovine trypsin-inhibiting activity; for FXa-inhibiting activity, times higher than that of polypeptide AN68: relative to control AN68; for FXa-inhibiting activity, times higher than that of polypeptide TN70: relative to control TN70
T1 construct: purchased American Diagnostica Inc
Protocol: The purified polypeptide of the present invention was dissolved in 100 μl of distilled water. Polypeptide concentration of this solution was determined based on its bovine trypsin-inhibiting activity measured in accordance with the above procedure (1) using the aforementioned UTI as a standard. The thus prepared solution was then diluted to various concentration levels with 0.1% BSA/150 mM NaCl/5 mM CaCl2 /50 mM Tris-HCl buffer (pH 8.3) for use in the activity measurement. Separately from this, a polypeptide TN70 (cf. Japanese Patent Application No. 3-325220) and polypeptide AN68 were purified respectively in accordance with the procedure of Example 2(4) from a culture supernatant of E. coli JE5505(pM552) (deposit No., FERM BP-3561) and E. coli JE5505(pM594) obtained by transforming E. coli JE5505 with the aforementioned plasmid pM594 obtained in Example 4. The thus purified polypeptide TN70 and AN68 were diluted to various concentration levels to be used as control solutions.
Using a synthetic compound S-2222 (Daiichi Pure Chemicals Co., Ltd.) as a substrate, FXa-inhibiting activities in the thus prepared test sample solution and control solution were measured in accordance with the method of Ohno et al. (Ohno H. et al., Thromb. Res., vol.19, pp.579-588, 1980) as follows. First, human FXa (American Diagnostica Inc.) was dissolved in distilled water to a final concentration of 10 PEU/ml and the solution was further diluted with the aforementioned 0.1% BSA/150 mM NaCl/5 mM CaCl2 /50 mM Tris-HCl buffer (pH 8.3) to prepare 0.1 PEU/ml of FXa solution. Separately from this, a 4 mM solution of S-2222 was prepared by dissolving it in distilled water and the solution was further diluted with the 0.1% BSA/150 mM NaCl/5 mM CaCl2 /50 mM Tris-HCl buffer (pH 8.3) to obtain a 2 mM solution of S-2222.
Next, 25 μl of the test sample or control solution was mixed with 100 μl of the 0.1% BSA/150 mM NaCl/5 mM CaCl2 /50 mM Tris-HCl buffer (pH 8.3) and 25 μl of the FXa solution. After incubating statically at 37° C. for 10 minutes, 100 μl of the S-2222 solution was added to start the reaction. The reaction was carried out at 37° C. for 30 minutes and then stopped by adding 50 μl of 50% acetic acid solution to the reaction mixture. Thereafter, absorbance at a wavelength of 405 nm was measured using a spectrophotometer. In this instance, in order to eliminate absorbancy of various contents in the reaction mixture other than the reaction product, a blank solution was prepared by mixing 25 μl of the FXa solution with 50 μl of 50% acetic acid and then with 25 μl of each test sample or the control solution, 100 μl of the 0.1% BSA/150 mM NaCl/5 mM CaCl2 /50 mM Tris-HCl buffer (pH 8.3) and with 100 μl of the S-2222 solution.
The results are shown in FIG. 45 to FIG. 53 and FIG. 66. In these figures, polypeptide concentration in the reaction solution was expressed as its bovine trypsin-inhibiting activity. Also, residual human FXa activity was expressed by percentage based on the absorbance of a control reaction mixture in which 25 μl of the 0.1% BSA/150 mM NaCl/5 mM CaCl2 /50 mM Tris-HCl buffer (pH 8.3) was used instead of the test sample.

[2] = molecular target: T2, Bovine trypsin (Bos taurus, UniProt P00760); assay: Bovine trypsin-inhibiting activity (synthetic substrate S-2444); format: biochemical; details: purified polypeptide, serially diluted
T2 construct: purchased Sigma Chemical Co. Type XIII
T2 sequence (P00760 24-246): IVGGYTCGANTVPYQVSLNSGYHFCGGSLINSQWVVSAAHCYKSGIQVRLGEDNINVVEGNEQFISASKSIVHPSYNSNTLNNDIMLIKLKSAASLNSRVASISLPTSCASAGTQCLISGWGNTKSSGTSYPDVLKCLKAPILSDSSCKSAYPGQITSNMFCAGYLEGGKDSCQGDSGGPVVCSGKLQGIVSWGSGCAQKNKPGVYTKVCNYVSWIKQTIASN
Protocol: The purified polypeptide of the present invention was dissolved in 100 μl of distilled water, and the solution was serially diluted with a 0.1% BSA/0.2M triethanolamine-HCl buffer (pH 7.8) for use in the activity measurement. Measurement of the trypsin-inhibiting activity in the thus prepared test sample was carried out in accordance with the Kassell's method (Kassell, B. et al., Methods in Enzymology, vol.19, pp.844-852, 1970) using a synthetic substrate S-2444 (Daiichi Pure Chemicals Co., Ltd.).
Bovine trypsin (Type XIII, Sigma Chemical Co.) was dissolved in 0.001M HCl to a final concentration of 13,600 BAEEU/ml and the solution was further diluted with 0.1% BSA/0.2M triethanolamine-HCl buffer (pH 7.8) to prepare 1.2 BAEEU/ml of trypsin solution. Separately from this, 2 mM solution of the synthetic substrate S-2444 was prepared by dissolving it in distilled water. Next, 100 μl of the test sample was mixed with 100 μl of the trypsin solution. After incubating statically at 37° C. for 10 minutes, 50 μl of the S-2444 solution was added to start the reaction. The reaction was carried out at 37° C. for 15 minutes and then stopped by adding 50 μl of 50% acetic acid solution to the reaction mixture. Thereafter, absorbance at a wavelength of 405 nm was measured using a spectrophotometer. In this instance, in order to eliminate absorbancy of various contents in the reaction mixture other than the reaction product, a blank solution was prepared by mixing 100 μl of the bovine trypsin solution with 50 μl of 50% acetic acid and then with 100 μl of each test sample and 50 μl of the S-2444 solution.

[3] = molecular target: T3, human trypsin (Homo sapiens, UniProt P07477); assay: Human trypsin-inhibiting activity (synthetic substrate S-2444); format: biochemical; details: purified polypeptide, various concentration levels
T3 construct: purchased Calbiochem
Protocol: The purified polypeptide of the present invention was dissolved in 100 μl of distilled water. Concentration of polypeptide in the thus prepared solution was determined based on its bovine trypsin-inhibiting activity measured in accordance with the above procedure (1) using UTI (Mochida Pharmaceutical Co., Ltd.; cf. H. Ohnishi et al., Nippon Yakurigaku Zasshi, vol.85, pp.1-6, 1985) as a standard. The polypeptide solution was then diluted to various concentration levels with 0.03% BSA/0.2M triethanolamine-HCl buffer (pH 7.8) for use in the activity measurement. Separately from this, human trypsin (Calbiochem) was dissolved in 1 mM HCl to a concentration of 1,000 SU/ml and the solution was further diluted with the 0.03% BSA/0.2M triethanolamine-HCl buffer (pH 7.8) to prepare a 1.25 SU/ml solution of human trypsin. Thereafter, human trypsin-inhibiting activity was measured in the same manner as described in the above procedure (1) using the aforementioned synthetic substrate S-2444. Separately from this, polypeptide AN68 (sequence described in Example 17(3)) was diluted to various concentration levels. Thereafter, human trypsin-inhibiting activity was measured in the same manner as described in the above procedure (1) and compared with the trypsin-inhibiting activity of the novel polypeptide of the present invention.

[4] = molecular target: activated blood coagulation factor X (FXa) (Homo sapiens, UniProt P00742); details: background statement; cited from earlier work
Sequence of activated blood coagulation factor X (FXa) (P00742 235-488 limits assumed): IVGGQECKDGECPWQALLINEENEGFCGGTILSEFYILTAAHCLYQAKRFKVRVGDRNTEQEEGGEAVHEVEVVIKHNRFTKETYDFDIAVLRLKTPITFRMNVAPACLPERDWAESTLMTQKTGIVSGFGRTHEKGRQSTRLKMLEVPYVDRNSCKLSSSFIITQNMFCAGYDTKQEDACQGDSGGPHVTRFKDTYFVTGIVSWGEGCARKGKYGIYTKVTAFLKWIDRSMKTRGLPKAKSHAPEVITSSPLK
Sequence of activated blood coagulation factor X (FXa) (P00742 41-179 partner limits assumed): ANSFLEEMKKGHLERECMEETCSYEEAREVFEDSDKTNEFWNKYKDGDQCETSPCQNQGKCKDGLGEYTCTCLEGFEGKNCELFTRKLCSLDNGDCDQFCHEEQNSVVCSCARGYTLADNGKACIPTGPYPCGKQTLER

T1 sequence (P00742 235-488 limits assumed): as the sequence (P00742 235-488 limits assumed) above
T1 sequence (P00742 41-179 partner limits assumed): as the sequence (P00742 41-179 partner limits assumed) above

FXa-inhibiting activity, times higher than that of polypeptide AN68 [1]: about ten
Molecule: Q19K/Y46E: formula 1 sequence with Lys for position 15 Gln and Glu for position 42 Tyr; SEQ. I.D. NO. 8; plasmid pM736 (AACNLPIVRGPCRAFIKLWAFDAVKGKCVLFPYGGCQGNGNKFESEK)
bovine trypsin inhibition [2]: can inhibit bovine trypsin in a concentration-dependent manner
human trypsin inhibition [3]: can inhibit human trypsin in a concentration-dependent manner

FXa-inhibiting activity, times higher than that of polypeptide TN70 [1]: about five
Molecule: Q19K: formula 1 sequence with Lys for position 15 Gln; amino acids 1-70 of SEQ. I.D. NO. 4; plasmid pM576 (DDAACNLPIVRGPCRAFIKLWAFDAVKGKCVLFPYGGCQGNGNKFYSEK)
bovine trypsin inhibition [2]: can inhibit bovine trypsin in a concentration-dependent manner
human trypsin inhibition [3]: can inhibit human trypsin in a concentration-dependent manner

FXa-inhibiting activity, times higher than that of polypeptide AN68 [1]: about three
Molecule: R11E/Y46E: formula 1 sequence with Glu for position 7 Arg and Glu for position 42 Tyr; SEQ. I.D. No. 10; plasmid pM726B (AACNLPIVEGPCRAFIQLWAFDAVKGKCVLFPYGGCQGNGNKFESEK)
bovine trypsin inhibition [2]: can inhibit bovine trypsin in a concentration-dependent manner
human trypsin inhibition [3]: can inhibit human trypsin in a concentration-dependent manner

FXa-inhibiting activity, times higher than that of polypeptide AN68 [1]: about six
Molecule: Q19R: formula 1 sequence with Arg for position 15 Gln; amino acids 1-68 of SEQ. I.D. NO. 6; plasmid pM735 (AACNLPIVRGPCRAFIRLWAFDAVKGKCVLFPYGGCQGNGNKFYSEK)
bovine trypsin inhibition [2]: can inhibit bovine trypsin in a concentration-dependent manner
human trypsin inhibition [3]: can inhibit human trypsin in a concentration-dependent manner

FXa-inhibiting activity, times higher than that of polypeptide TN70 [1]: about seven
Molecule: Y46E: formula 1 sequence with Glu for position 42 Tyr; amino acids 1-70 of SEQ. I.D. NO. 2; from plasmid pM575B (TVAACNLPIVRGPCRAFIQLWAFDAVKGKCVLFPYGGCQGNGNKFESEK)
bovine trypsin inhibition [2]: can inhibit bovine trypsin in a concentration-dependent manner
human trypsin inhibition [3]: can inhibit human trypsin in a concentration-dependent manner

FXa-inhibiting activity, times higher than that of polypeptide AN68 [1]: about twenty
B2: Q19K/Y46D: formula 1 sequence with Lys for position 15 Gln and Asp for position 42 Tyr; SEQ. I.D. NO. 35; plasmid pM727 (protein)
chain: AACNLPIVRGPCRAFIKLWAFDAVKGKCVLFPYGGCQGNGNKFDSEKECREYCGVPGDGDEELLRFSN
bovine trypsin inhibition [2]: can inhibit bovine trypsin in a concentration-dependent manner
human trypsin inhibition [3]: can inhibit human trypsin in a concentration-dependent manner

Second part, the molecule before the results:

Molecule: Q19R/Y46E: formula 1 sequence with Arg for position 15 Gln and Glu for position 42 Tyr; SEQ. I.D. NO. 16; plasmid pM737B (AACNLPIVRGPCRAFIRLWAFDAVKGKCVLFPYGGCQGNGNKFESEK)
FXa-inhibiting activity, times higher than that of polypeptide AN68 [1]: about ten
bovine trypsin inhibition [2]: can inhibit bovine trypsin in a concentration-dependent manner
human trypsin inhibition [3]: can inhibit human trypsin in a concentration-dependent manner

Molecule: Y46E-AN: formula 1 sequence with Glu for position 42 Tyr; amino acids 1-68 of SEQ. I.D. NO. 12; plasmid pM575C (MKQSTIALALLPLLFTPVTKA)
bovine trypsin inhibition [2]: can inhibit bovine trypsin in a concentration-dependent manner
human trypsin inhibition [3]: can inhibit human trypsin in a concentration-dependent manner

Molecule: polypeptide of formula 1: unsubstituted parent polypeptide whose sequence coincides with a part of UTI or Bikunins (HI-30) (CNLPIVRGPCRAFIQLWAFDAVKGKCVLFPYGGCQGNGNKFYSEKECREYC) [reference compound]
FXa-inhibiting activity [4]: high FXa-inhibiting activity

Molecule: Q19K-AN: formula 1 sequence with Lys for position 15 Gln; amino acids 1-68 of SEQ. I.D. NO. 14; plasmid pM576B (AACNLPIVRGPCRAFIKLWAFDAVKGKCVLFPYGGCQGNGNKFYSEK)
bovine trypsin inhibition [2]: can inhibit bovine trypsin in a concentration-dependent manner
human trypsin inhibition [3]: can inhibit human trypsin in a concentration-dependent manner

B1: Q19R/Y46D: formula 1 sequence with Arg for position 15 Gln and Asp for position 42 Tyr; SEQ. I.D. NO. 36; plasmid pM744 (protein)
chain: B2 chain with K17R
FXa-inhibiting activity, times higher than that of polypeptide AN68 [1]: about 18 times
bovine trypsin inhibition [2]: can inhibit bovine trypsin in a concentration-dependent manner
human trypsin inhibition [3]: can inhibit human trypsin in a concentration-dependent manner
